Values of other authors, collected in PMC4769028.

Target: CusA (Escherichia coli) (UniProt P38054)
Assay: ITC

Chain of UniProt P38054 (P38054 whole entry): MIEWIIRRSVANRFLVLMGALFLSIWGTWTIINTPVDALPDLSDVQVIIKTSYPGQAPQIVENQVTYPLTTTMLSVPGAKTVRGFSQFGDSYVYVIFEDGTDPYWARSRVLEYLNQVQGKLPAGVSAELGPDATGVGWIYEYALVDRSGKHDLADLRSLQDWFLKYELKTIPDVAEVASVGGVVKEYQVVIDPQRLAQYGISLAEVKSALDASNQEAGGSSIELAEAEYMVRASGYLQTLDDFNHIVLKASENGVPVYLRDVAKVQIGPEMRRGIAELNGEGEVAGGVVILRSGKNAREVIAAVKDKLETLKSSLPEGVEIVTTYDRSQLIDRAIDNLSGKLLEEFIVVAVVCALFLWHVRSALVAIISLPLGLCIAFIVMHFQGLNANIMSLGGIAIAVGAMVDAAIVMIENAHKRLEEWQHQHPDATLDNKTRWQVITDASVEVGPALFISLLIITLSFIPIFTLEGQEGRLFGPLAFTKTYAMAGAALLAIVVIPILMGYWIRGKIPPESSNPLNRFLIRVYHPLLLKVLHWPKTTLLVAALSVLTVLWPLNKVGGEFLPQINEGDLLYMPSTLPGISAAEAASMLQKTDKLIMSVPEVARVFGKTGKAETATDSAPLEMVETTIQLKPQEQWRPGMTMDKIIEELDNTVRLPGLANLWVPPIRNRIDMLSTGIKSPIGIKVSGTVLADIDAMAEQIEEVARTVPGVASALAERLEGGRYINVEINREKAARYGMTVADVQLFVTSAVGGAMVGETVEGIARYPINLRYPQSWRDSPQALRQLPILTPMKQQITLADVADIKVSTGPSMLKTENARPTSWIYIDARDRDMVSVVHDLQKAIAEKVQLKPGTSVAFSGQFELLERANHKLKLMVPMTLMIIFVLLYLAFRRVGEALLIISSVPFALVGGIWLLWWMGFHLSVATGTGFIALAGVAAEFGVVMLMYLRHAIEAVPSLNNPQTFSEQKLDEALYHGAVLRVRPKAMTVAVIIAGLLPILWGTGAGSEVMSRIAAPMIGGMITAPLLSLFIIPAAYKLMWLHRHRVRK

CusB (from UniProt P77239)
Kd: 5.1 µM
